In patent publication US20180155451A1 (published 2018):

T1: FcγRIIa H (human, UniProt P12318 34-217)
T1 construct: extracellular domain; also called FcgRIIa H type; 2aH
T1 sequence (looked up): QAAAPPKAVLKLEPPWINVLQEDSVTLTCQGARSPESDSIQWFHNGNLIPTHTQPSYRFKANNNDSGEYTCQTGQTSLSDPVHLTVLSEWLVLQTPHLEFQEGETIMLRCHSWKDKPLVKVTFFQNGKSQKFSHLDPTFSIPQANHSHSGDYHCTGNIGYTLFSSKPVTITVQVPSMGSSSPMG

T2: FcγRIIb (human, UniProt P31994 43-217)
T2 construct: extracellular domain; also called FcgRIIb; 2b
T2 sequence (looked up): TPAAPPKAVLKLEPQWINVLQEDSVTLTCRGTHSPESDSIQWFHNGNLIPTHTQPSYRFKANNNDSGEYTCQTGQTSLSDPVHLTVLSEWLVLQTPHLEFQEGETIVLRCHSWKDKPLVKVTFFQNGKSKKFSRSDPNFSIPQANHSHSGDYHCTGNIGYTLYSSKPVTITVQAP

T3: FcγRIIb extracellular domain with C-terminal His tag (human, UniProt P31994 43-217)
T3 construct: extracellular domain; Soluble receptor expressed in FreeStyle293 cells, used as analyte in Biacore; also called FcgRIIb; 2b; not shown: His tag at the C terminus
T3 sequence (looked up): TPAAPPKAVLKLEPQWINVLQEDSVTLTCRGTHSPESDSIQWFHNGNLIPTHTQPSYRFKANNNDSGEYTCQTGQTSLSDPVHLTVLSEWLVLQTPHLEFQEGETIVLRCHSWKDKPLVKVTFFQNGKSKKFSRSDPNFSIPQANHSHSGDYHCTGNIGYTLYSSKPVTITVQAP

T4: FcγRIIb (human, UniProt P31994 43-217)
T4 construct: extracellular domain; also called FcgRIIb; 2b; not shown: His tag at the C terminus
T4 sequence (looked up): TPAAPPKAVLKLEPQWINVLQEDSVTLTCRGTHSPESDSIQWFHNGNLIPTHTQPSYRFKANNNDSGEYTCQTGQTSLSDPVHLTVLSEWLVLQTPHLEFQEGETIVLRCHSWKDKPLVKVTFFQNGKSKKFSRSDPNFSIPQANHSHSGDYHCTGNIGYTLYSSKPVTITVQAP


What was measured:
[1] = target: T1, FcγRIIa H; experiment: SPR (Biacore), antibody captured on antigen-peptide chip, FcγR as analyte; binding relative to GpH7-A5/GpH7-B3/GpL16-k0 = 100
[2] = target: T2, FcγRIIb; experiment: as above
[3] = target: T5, FcγRIIIa extracellular domain with C-terminal His tag (human, UniProt P08637 17-208); experiment: SPR; He/Con_3a divided by He/Con_2b (FcγRIIIa over FcγRIIb)
T5 construct: extracellular domain; also called FcgRIIIa; 3a; not shown: His tag at the C terminus
Protocol: (§1) Analysis of interaction between objective antibody and the FcγR was carried out using Biacore T100 (GE Healthcare). HBS-EP+ (GE Healthcare) was used as the running buffer, and the measurement temperature was set to 25° C. Chips produced by immobilizing the antigen peptide by the amine coupling method to a Series S Sencor Chip CM5 (GE Healthcare), or alternatively, chips produced by allowing preliminarily biotinylated antigen peptides to interact with and immobilize onto a Series S Sensor Chip SA (certified) (GE Healthcare) were used. Antibodies of interest were captured onto an antigen peptide-immobilized chip, and allowed to interact to each FcγR diluted with running buffer. To regenerate and repeatedly use the chip, the antibodies captured on the chip were washed off by reacting 10 mM glycine-HCl, pH 1.5.
(§2) The FcγR-binding activity of each antibody was assessed primarily using as an indicator the FcγR-binding activity and dissociation constant for FcγR.

[4] = target: T3, FcγRIIb extracellular domain with …; experiment: SPR (Biacore), antibody captured on antigen peptide chip, FcγR as analyte
Protocol: as §1, §2

[5] = target: T5, FcγRIIIa extracellular domain with …; experiment: as above
Protocol: as §1, §2

[6] = target: T6, FcγRIa (human, UniProt P12314 16-292); experiment: SPR (Biacore), antibody captured, FcγR as analyte; binding as % of GpH7-A5/GpH7-B3/GpL16-k0
T6 construct: extracellular domain; also called FcgRI; 1a; not shown: His tag at the C terminus

[7] = target: T4, FcγRIIb; experiment: as above

T6 sequence (P12314 16-292): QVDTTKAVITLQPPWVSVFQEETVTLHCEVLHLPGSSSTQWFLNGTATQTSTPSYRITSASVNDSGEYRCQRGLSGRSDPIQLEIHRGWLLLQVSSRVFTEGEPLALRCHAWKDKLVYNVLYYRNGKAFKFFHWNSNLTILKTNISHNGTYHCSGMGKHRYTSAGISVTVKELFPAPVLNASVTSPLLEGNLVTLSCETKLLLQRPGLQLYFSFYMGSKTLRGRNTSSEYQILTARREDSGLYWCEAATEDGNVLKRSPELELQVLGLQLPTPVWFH
T5 sequence (P08637 17-208): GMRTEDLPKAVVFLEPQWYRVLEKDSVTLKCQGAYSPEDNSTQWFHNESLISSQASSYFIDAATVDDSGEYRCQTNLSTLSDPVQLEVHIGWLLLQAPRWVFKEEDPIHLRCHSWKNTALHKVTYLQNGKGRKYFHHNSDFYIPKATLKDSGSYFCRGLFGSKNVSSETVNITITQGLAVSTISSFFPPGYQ

Binder | He/Con_2aH [1] | He/Con_2b [2] | He/Con_1a [6] | He/Con_2b [7] | also measured
GpH7-A5/GpH7-B3 variant I336_03V/GpL16-k0 (antibody, human IgG1, kappa, Heterodimerized anti-glypican-3 IgG1; substitution in only one H chain (the GpH7-B3 chain); also called He Ab) heavy 1: not shown heavy 2: not shown light: DIVMTQSPLSLPVTPGEPASISCQASESLVHSNRNTYLHWYLQKPGQSPQLLIYKVSNRFSGVPDRFSGSGSGTDFTLKISRVEAEDVGVYYCSQNTHVPPTFGQGTKVEIERTVAAPSVFIFPPSDEQLKSGTASVVCLLNNFYPREAKVQWKVDNALQSGNSQESVTEQDSKDSTYSLSSTLTLSKADYEKHKVYACEVTHQGLSSPVTKSFNRGEC | 102 % of HeCon Ab | 90.3 % of HeCon Ab | – | – | –
GpH7-A5/GpH7-B3 variant P331_03V/GpL16-k0 (antibody, human IgG1, kappa, Heterodimerized anti-glypican-3 IgG1; P331V (EU) only in the GpH7-B3 chain; also called He Ab) heavy 1: not shown heavy 2: not shown light: DIVMTQSPLSLPVTPGEPASISCQASESLVHSNRNTYLHWYLQKPGQSPQLLIYKVSNRFSGVPDRFSGSGSGTDFTLKISRVEAEDVGVYYCSQNTHVPPTFGQGTKVEIERTVAAPSVFIFPPSDEQLKSGTASVVCLLNNFYPREAKVQWKVDNALQSGNSQESVTEQDSKDSTYSLSSTLTLSKADYEKHKVYACEVTHQGLSSPVTKSFNRGEC | – | – | – | – | He_3a/2b (IIIa/IIb) [3]: 0.62 ratio; He/Con_2b [4]: 119 relative binding (GpH7-A5/GpH7-B3/GpL16-k0 = 100); He/Con_3a [5]: 73.2 relative binding (GpH7-A5/GpH7-B3/GpL16-k0 = 100)
GpH7-A5/GpH7-B3 variant T335_02A/GpL16-k0 (antibody, human IgG1, kappa, Heterodimerized anti-glypican-3 IgG1; substitution in only one H chain (the GpH7-B3 chain); also called He Ab) heavy 1: not shown heavy 2: not shown light: DIVMTQSPLSLPVTPGEPASISCQASESLVHSNRNTYLHWYLQKPGQSPQLLIYKVSNRFSGVPDRFSGSGSGTDFTLKISRVEAEDVGVYYCSQNTHVPPTFGQGTKVEIERTVAAPSVFIFPPSDEQLKSGTASVVCLLNNFYPREAKVQWKVDNALQSGNSQESVTEQDSKDSTYSLSSTLTLSKADYEKHKVYACEVTHQGLSSPVTKSFNRGEC | 101 % of HeCon Ab | 94 % of HeCon Ab | – | – | –
GpH7-A5/GpH7-B3 variant P331_20W/GpL16-k0 (antibody, human IgG1, kappa, heterodimerized IgG1; alteration in the GpH7-B3 H chain only; also called He Ab) heavy 1: not shown heavy 2: not shown light: DIVMTQSPLSLPVTPGEPASISCQASESLVHSNRNTYLHWYLQKPGQSPQLLIYKVSNRFSGVPDRFSGSGSGTDFTLKISRVEAEDVGVYYCSQNTHVPPTFGQGTKVEIERTVAAPSVFIFPPSDEQLKSGTASVVCLLNNFYPREAKVQWKVDNALQSGNSQESVTEQDSKDSTYSLSSTLTLSKADYEKHKVYACEVTHQGLSSPVTKSFNRGEC | – | – | 94.5 % of control | 111 % of control | –
GpH7-A5/GpH7-B3 variant I332_06M/GpL16-k0 (antibody, human IgG1, kappa, heterodimerized IgG1; alteration in the GpH7-B3 H chain only; also called He Ab) heavy 1: not shown heavy 2: not shown light: DIVMTQSPLSLPVTPGEPASISCQASESLVHSNRNTYLHWYLQKPGQSPQLLIYKVSNRFSGVPDRFSGSGSGTDFTLKISRVEAEDVGVYYCSQNTHVPPTFGQGTKVEIERTVAAPSVFIFPPSDEQLKSGTASVVCLLNNFYPREAKVQWKVDNALQSGNSQESVTEQDSKDSTYSLSSTLTLSKADYEKHKVYACEVTHQGLSSPVTKSFNRGEC | – | – | 92.3 % of control | 105 % of control | –
GpH7-A5/GpH7-B3 variant T335_01G/GpL16-k0 (antibody, human IgG1, kappa, Heterodimerized anti-glypican-3 IgG1; substitution in only one H chain (the GpH7-B3 chain); also called He Ab) heavy 1: not shown heavy 2: not shown light: DIVMTQSPLSLPVTPGEPASISCQASESLVHSNRNTYLHWYLQKPGQSPQLLIYKVSNRFSGVPDRFSGSGSGTDFTLKISRVEAEDVGVYYCSQNTHVPPTFGQGTKVEIERTVAAPSVFIFPPSDEQLKSGTASVVCLLNNFYPREAKVQWKVDNALQSGNSQESVTEQDSKDSTYSLSSTLTLSKADYEKHKVYACEVTHQGLSSPVTKSFNRGEC | 103 % of HeCon Ab | 96.7 % of HeCon Ab | – | – | –
GpH7-A5/GpH7-B3 variant I332_04F/GpL16-k0 (antibody, human IgG1, kappa, heterodimerized IgG1; alteration in the GpH7-B3 H chain only; also called He Ab) heavy 1: not shown heavy 2: not shown light: DIVMTQSPLSLPVTPGEPASISCQASESLVHSNRNTYLHWYLQKPGQSPQLLIYKVSNRFSGVPDRFSGSGSGTDFTLKISRVEAEDVGVYYCSQNTHVPPTFGQGTKVEIERTVAAPSVFIFPPSDEQLKSGTASVVCLLNNFYPREAKVQWKVDNALQSGNSQESVTEQDSKDSTYSLSSTLTLSKADYEKHKVYACEVTHQGLSSPVTKSFNRGEC | – | – | 93.6 % of control | 104 % of control | –
GpH7-A5/GpH7-B3 variant I332_02A/GpL16-k0 (antibody, human IgG1, kappa, heterodimerized IgG1; alteration in the GpH7-B3 H chain only; also called He Ab) heavy 1: not shown heavy 2: not shown light: DIVMTQSPLSLPVTPGEPASISCQASESLVHSNRNTYLHWYLQKPGQSPQLLIYKVSNRFSGVPDRFSGSGSGTDFTLKISRVEAEDVGVYYCSQNTHVPPTFGQGTKVEIERTVAAPSVFIFPPSDEQLKSGTASVVCLLNNFYPREAKVQWKVDNALQSGNSQESVTEQDSKDSTYSLSSTLTLSKADYEKHKVYACEVTHQGLSSPVTKSFNRGEC | – | – | 88.3 % of control | 103 % of control | –
